Like-named read-outs stand apart in the source and are kept apart here.

The target in test [1] is Drosophila Telomere Loss / Modigliani (DTL/Moi), D. melanogaster (Drosophila melanogaster) (UniProt B7Z0L8). Nature of the test: SEC; combined heparin-sepharose fractions of co-expressed Ver and DTL/Moi; Superdex 200 10/300 GL; 20 mM Tris pH 7.5, 100 mM NaCl. In general terms: SEC sorts molecules by how far they enter the pores of the column.
Test [2] has the same target. The test is described as above. The source holds these as a separate data set.

Sequence of UniProt B7Z0L8 (B7Z0L8 whole entry): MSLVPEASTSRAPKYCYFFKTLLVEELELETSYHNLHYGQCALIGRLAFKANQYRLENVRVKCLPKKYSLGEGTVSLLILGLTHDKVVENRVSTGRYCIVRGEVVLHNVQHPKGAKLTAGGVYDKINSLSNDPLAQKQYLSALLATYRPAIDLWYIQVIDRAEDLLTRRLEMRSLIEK

The stoichiometry N is a count of units in the complex or per binding partner. For the molecule “D. yakuba Verrocchio (Ver) (natural protein)”, the stoichiometry N in test [1] was 1.

B1: Verrocchio (Ver), D. melanogaster (natural protein)
chain: MDFNQSFEDIESQLDNFVIRKNQQSEKSTGKCGPEVHDNVPLTISQIERATQDPENENVFITDDVHPIHFCTCIIYAFVTGNGTHNESFMKFMIDDGTGSLEASITKKPFNGRVISSLYSEASSLASSEAYKSIAVSMMRLLQVSMEYIDPTRISRGHSLFLRGRPNRFRGKMGLDAFQFFIDSGRSRNMEIGFVDYLTDWQRRHKTMQNTTNK
In the case of B1, the stoichiometry N in test [2] worked out at 1.

(Values after publication PMC4643883.)
